Results reported in patent US20130347134A1 (published 2013).

Experiments:
[1] = target: T1, murine platelet glycoprotein Ib alpha (GPIb α) on mouse platelets (mouse, UniProt O35930 17-734); experiment: mouse whole blood perfused 4 min over surface-immobilized recombinant VWF-A1, 1600 s-1
T1 construct: whole, on cells; Native receptor on mouse platelets or whole blood; also called murine GPIb α; mGPIb-α
T1 sequence (looked up): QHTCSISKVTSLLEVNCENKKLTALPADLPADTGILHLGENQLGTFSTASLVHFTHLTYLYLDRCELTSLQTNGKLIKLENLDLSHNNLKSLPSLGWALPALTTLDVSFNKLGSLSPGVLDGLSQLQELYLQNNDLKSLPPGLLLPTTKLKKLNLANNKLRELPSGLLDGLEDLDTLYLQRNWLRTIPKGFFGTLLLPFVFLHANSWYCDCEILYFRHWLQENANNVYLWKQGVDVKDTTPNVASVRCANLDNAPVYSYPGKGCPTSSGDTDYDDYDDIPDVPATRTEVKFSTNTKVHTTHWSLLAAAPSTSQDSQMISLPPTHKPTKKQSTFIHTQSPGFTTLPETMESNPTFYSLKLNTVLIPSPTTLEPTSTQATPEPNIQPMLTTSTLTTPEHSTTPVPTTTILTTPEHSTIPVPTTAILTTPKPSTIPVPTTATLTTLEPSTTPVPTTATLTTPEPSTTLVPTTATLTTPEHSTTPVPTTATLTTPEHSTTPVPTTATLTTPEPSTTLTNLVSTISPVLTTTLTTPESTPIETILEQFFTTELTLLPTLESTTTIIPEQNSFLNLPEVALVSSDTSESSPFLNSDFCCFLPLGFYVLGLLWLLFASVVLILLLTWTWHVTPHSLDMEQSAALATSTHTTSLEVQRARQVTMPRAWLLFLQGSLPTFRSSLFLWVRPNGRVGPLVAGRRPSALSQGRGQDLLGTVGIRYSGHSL
Procedure: (§1) Ex vivo platelet adhesion studies. Experiments were performed in a parallel-plate flow chamber as previously described (Offermanns, S., et al., 2006). […] Subsequently, the plate was washed and non-specific interactions blocked by the addition of TBS containing 3% BSA, pH 7.4 (1 hour, 37° C.). Human or murine plasma obtained from heparinized whole blood was added and the plates placed at 37° C. for an additional 2 hours. […] The number of platelets attached per unit area (0.07 mm²) and translocation velocities were determined by off-line analysis (Image-Pro Plus, Media Cybernetics). For GPIb α inhibition studies, the function-blocking mAb 6D1 (20 μg/ml) or mAb SZ2 (20 μg/ml; Beckman Coulter, Brea, Calif.) was added to anticoagulated human blood for 30 minutes prior to use. Experiments were performed in triplicate on two separate days. An ELISA was used to ensure equivalent coating concentration of plasma and recombinant proteins (Denis, C. et al., 1998).

[2] = target: T2, human platelet glycoprotein Ib alpha (GPIb α) on human platelets (human, UniProt P07359 17-652); experiment: human whole blood over immobilized protein, parallel-plate flow chamber, 1600 s^-1
T2 construct: whole, on cells; Native receptor on washed platelets or whole blood; also called GPIb alpha; hGPIb-α
Procedure: as §1

binding result [1]: binds
platelet deposition relative to same-species control [2]: 25%
B1: recombinant wild-type murine VWF-A1 domain protein (amino acid residues 1238 to 1471), Example 3 (ligand)
chain: QEPGGLVAPPTDAPVSSTTPYVEDTPEPPLHNFYCSKLLDLVFLLDGSSMLSEAEFEVLKAFVVGMMERLHISQKRIRVAVVEYHDGSRAYLELKARKRPSELRRITSQIKYTGSQVASTSEVLKYTLFQIFGKIDRPEASHITLLLTASQEPPRMARNLVRYVQGLKKKKVIVIPVGIGPHASLKQIRLIEKQAPENKAFLLSGVDELEQRRDEIVSYLCDLAPEAPAPTQPP
notes: Generated in bacteria, with a single disulfide 1272-1458; also called murine rVWF-A1; WT murine VWF-A1 domain protein
